Experimental data: patent US20040102611
Changes are numbered by the printed parent chain. Numbers in names are those of the source.

T1: DBF4 (human DBF4/ASK1), Q9UBU7
T1 chain: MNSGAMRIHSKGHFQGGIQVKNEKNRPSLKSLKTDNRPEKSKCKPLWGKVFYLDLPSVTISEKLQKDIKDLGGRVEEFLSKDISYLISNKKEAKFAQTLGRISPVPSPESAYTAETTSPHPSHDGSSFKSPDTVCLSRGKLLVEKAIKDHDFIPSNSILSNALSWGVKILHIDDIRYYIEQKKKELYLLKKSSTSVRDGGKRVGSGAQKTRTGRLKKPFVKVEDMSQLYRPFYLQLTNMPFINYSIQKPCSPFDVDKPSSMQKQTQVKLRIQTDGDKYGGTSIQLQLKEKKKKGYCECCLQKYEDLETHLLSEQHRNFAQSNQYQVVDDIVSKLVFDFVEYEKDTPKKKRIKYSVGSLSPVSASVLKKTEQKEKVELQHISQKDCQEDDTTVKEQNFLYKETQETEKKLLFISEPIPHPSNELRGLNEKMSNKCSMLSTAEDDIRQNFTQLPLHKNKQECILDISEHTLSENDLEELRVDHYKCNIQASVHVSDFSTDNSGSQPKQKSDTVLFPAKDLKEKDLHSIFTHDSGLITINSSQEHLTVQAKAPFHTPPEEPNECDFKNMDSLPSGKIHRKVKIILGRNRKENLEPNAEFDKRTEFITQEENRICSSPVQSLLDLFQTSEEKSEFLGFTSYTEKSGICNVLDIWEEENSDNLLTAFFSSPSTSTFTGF

T2: HA-DRF1 (DRF1 with N-terminal HA epitope, expressed from pCDNAHAdrf1)
T2 chain: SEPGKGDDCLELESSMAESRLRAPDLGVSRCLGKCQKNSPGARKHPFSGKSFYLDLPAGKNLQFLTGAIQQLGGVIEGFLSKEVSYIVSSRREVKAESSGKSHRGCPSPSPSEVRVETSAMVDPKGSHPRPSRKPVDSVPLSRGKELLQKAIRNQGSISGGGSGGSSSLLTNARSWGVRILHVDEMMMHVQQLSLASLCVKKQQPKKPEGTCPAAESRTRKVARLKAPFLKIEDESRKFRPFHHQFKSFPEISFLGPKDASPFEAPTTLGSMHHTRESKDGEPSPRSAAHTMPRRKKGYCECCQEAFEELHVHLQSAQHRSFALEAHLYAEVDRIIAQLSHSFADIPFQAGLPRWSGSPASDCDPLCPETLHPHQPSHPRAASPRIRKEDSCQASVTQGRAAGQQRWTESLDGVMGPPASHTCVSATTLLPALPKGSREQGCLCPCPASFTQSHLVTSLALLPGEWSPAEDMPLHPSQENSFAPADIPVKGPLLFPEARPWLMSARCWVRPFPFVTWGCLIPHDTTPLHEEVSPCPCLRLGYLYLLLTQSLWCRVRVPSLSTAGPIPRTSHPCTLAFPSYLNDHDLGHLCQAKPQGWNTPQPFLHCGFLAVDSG

B1: FLAG-tagged human CDC7 kinase, wild type (pCdc7FLAG-tagged, in pCMV-Tag2) (protein)
chain: MEASLGIQMDEPMAFSPQRDRFQAEGSLKKNEQNFKLAGVKKDIEKLYEAVPQLSNVFKIEDKIGEGTFSSVYLATAQLQVGPEEKIALKHLIPTSHPIRIAAELQCLTVAGGQDNVMGVKYCFRKNDHVVIAMPYLEHESFLDILNSLSFQEVREYMLNLFKALKRIHQFGIVHRDVKPSNFLYNRRLKKYALVDFGLAQGTHDTKIELLKFVQSEAQQERCSQNKSHIITGNKIPLSGPVPKELDQQSTTKASVKRPYTNAQIQIKQGKDGKEGSVGLSVQRSVFGERNFNIHSSISHESPAVKLMKQSKTVDVLSRKLATKKKAISTKVMNSAVMRKTASSCPASLTCDCYATDKVCSICLSRRQQVAPRAGTPGFRAPEVLTKCPNQTTAIDMWSAGVIFLSLLSGRYPFYKASDDLTALAQIMTIRGSRETIQAAKTFGKSILCSKEVPAQDLRKLCERLRGMDSSTPKLTSDIQGHASHQPAISEKTDHKASCLVQTPPGQYSGNSFKKGDSNSCEHCFDEYNTNLEGWNEVPDEAYDLLDKLLDLNPASRITAEEALLHPFFKDMSL
B2: FLAG-tagged human CDC7 kinase, kinase negative form K90R (pCdc7FLAG K90R) (protein)
chain: B1 chain with K90R

Legend:
[1] = molecular target: T1, DBF4 (human DBF4/ASK1), Q9UBU7
[2] = molecular target: T2, HA-DRF1 (DRF1 with N-terminal HA …)

Protein	phosphorylation of MCM2 (1-285) by immunoprecipitated complexes (32P kinase assay, autoradiography) [1]	phosphorylation of DRF1 (32P, FIG. 3 panel A) [2]	phosphorylation of MCM2 (1-285) by immunoprecipitated complexes (32P kinase assay, autoradiography) [2]	phosphorylation of MCM2 by CDC7 [2]
B1	DRF1 is a regulatory subunit of CDC7 able to induce its kinase activity in a way comparable to DBF4 (lane 5)	DRF1, as DBF4, was detected as a phosphoprotein when expressed with wild type CDC7 but not with the kinase negative	In the presence of HA-DRF1 and wild-type CDC7, efficient phosphorylation of MCM2 (1-285) (above the background shown in lane 4, panel B) was observed	in the presence of DRF1, CDC7 is able to phosphorylate its physiological substrates MCM2
B2			it can be abolished by overexpression of the mutant K90R (lanes 1 and 6)	
